These results are taken from US20060241289A1.

Like-named read-outs stand apart in the source and are kept apart here.

In assay [1] the target is TSH receptor coated onto plastic tubes or ELISA plate wells (RSR Ltd) / detergent solubilised TSH receptor. The experiment in a line: 125I-TSH on TSHR coated tubes, buffer only.
For assay [2] the target is unchanged. The experiment in a line: 125I-TSH on TSHR coated tubes, buffer only. The source holds these as a separate data set.
For assay [3] the target is unchanged. The experiment in a line: 125I-TSH on TSHR coated tubes, assay buffer only.
For assay [4], the target named is TSH receptor coated onto plastic tubes (UniProt P16473). The experiment in a line: 125I-TSH binding to TSHR coated tubes, assay buffer only.
The target is the same in assay [5]. Described as above. This is another data set of the same source.
The target in assay [6] is TSH receptor coated onto plastic tubes or ELISA plate wells (RSR Ltd) / detergent solubilised TSH receptor. Description: 125I-TSH on TSHR coated tubes, healthy blood donor serum pool only.
Assay [7] has the same target. Described as above. This is another data set of the same source.
In assay [8] the target is hTSH receptor expressed on CHO cells (human) (UniProt P16473). The experiment in a line: cell-based or functional assay.
Assay [9] deals with TSH receptor coated onto plastic tubes (UniProt P16473). Description: TSHR coated tubes; 90/672 at 1 U/L; competitor 125I-TSH.
For assay [10] the target is unchanged. Description: TSHR coated tubes; 90/672 at 2 U/L; competitor 125I-TSH.
Assay [11] shares this target. The experiment in a line: TSHR coated tubes; 90/672 at 8 U/L; competitor 125I-TSH.
Assay [12] shares this target. Description: TSHR coated tubes; 90/672 at 1 U/L; competitor 125I-9D33.
Assay [13] has the same target. The experiment in a line: TSHR coated tubes; 90/672 at 2 U/L; competitor 125I-9D33.
The target is the same in assay [14]. The experiment in a line: TSHR coated tubes; 90/672 at 40 U/L; competitor 125I-TSH.
Assay [15] has the same target. Description: TSHR coated tubes; 90/672 at 8 U/L; competitor 125I-9D33.
Assay [16] shares this target. The experiment in a line: TSHR coated tubes; 90/672 at 40 U/L; competitor 125I-9D33.
Assay [17] addresses TSH receptor coated onto plastic tubes or ELISA plate wells (RSR Ltd) / detergent solubilised TSH receptor. Description: 125I-TSH on TSHR coated tubes, sample diluted in serum.
Assay [18] shares this target. The experiment in a line: Scatchard analysis, 125I-Fab on TSH receptor coated tubes.
For assay [19] the target is unchanged. The experiment in a line: 125I-TSH on TSHR coated tubes, sample diluted in assay buffer.
For assay [20] the target is unchanged. The experiment in a line: inhibition of 125I-TSH binding, mean of serum and assay buffer.

As usually defined, the % inhibition is the relative decrease from the control value, in per cent. Low values mean little suppression, high ones strong suppression.

For the substance 125I-labelled TSH (ligand), the % of total cpm bound was 14.7% in assay [1], 16.3% in assay [2], 14.9% in [6] and 14.7% in [7]. Further, the % binding in assay [3] stood at 12.1%. For the same substance, the % inhibition in [3] came out at 0%. Moreover, the % 125I-TSH binding in assay [4] came to 11.5%; in assay [5], 11.1%.
In [8], NIBSC 90/672 yielded a Mean cyclic AMP per well; NIBSC 90/672 0.1 units/L (pmols per well) of 1.09, a Mean cyclic AMP per well; NIBSC 90/672 0.3 units/L (pmols per well) of 1.49, a Mean cyclic AMP per well; NIBSC 90/672 1.0 units/L (pmols per well) of 3.52 and a Mean cyclic AMP per well; NIBSC 90/672 3.0 units/L (pmols per well) of 8.16.
In the case of “NIBSC 90/672 (International Standard for thyroid stimulating antibody)”, the inhibition of 125I-TSH binding (%) in assay [9] worked out at 12%; in assay [10], 23%; in [11] it was 68%; in assay [14], 92%. For the same substance, the 125I-9D33 bound (% total counts added) in [12] is 13%; in [13] it was 11%; in [15], 7.1%; in assay [16], 4.1%. Further, the inhibition of 125I-9D33 binding (%) in assay [12] was 10%; in assay [13], 28%; in [15] it was 52%; in assay [16], 72%.
Regarding hMAb TSHR1 Fab, the % inhibition in assay [17] came out at 36%. Besides, the mean units/mg (NIBSC 90/672) in [17] stood at 288 units/mg; in assay [19] it was 309 units/mg. The same substance showed a Ka in assay [18] of 4.5e+10 M⁻¹. In addition, the values for the units/mg (NIBSC 90/672) in [19] (Fab at 3 ng/mL), in assay [19] (Fab at 10 ng/mL) and in [19] (Fab at 30 ng/mL) were 265 units/mg, 291 units/mg and 372 units/mg, respectively. This substance yielded a Units/mg (NIBSC 90/672), inhibition of TSH binding assay in assay [20] of 300 Units/mg. Besides, in [20], the Units/nmole (NIBSC 90/672), inhibition of TSH binding assay stood at 15 Units/nmole.
As to “human TSH (from UniProt P01215 25-116; P01222 21-132) (ligand)”, the stimulation of cyclic AMP production in CHO cells transfected with the TSH receptor in assay [8] was found to be 10 ng/mL.
